B1: humanized monoclonal antibody h1F3 (antibody, V domains shown)
VH: QVQLVQSGAEVKKPGASVKVSCKASGYSFTSYWMHWVRQAPGQGLEWMGEINPSNGRTNYNEKFNTRVTMTRDTSTSTVYMELSSLRSEDTAVYYCVLYGNYVVYYTMDYWGQGT
VL: DIQLTQSPSFLSASVGDRVTITCSASTSVSYMEWYQQKPGKAPKLLIYTTSKLASGVPSRFSGSGSGTEFTLTISSLQPEDFATYYCHQWRNYPFTFGQGTKLEIKR
notes: also called humanized antibody; humanized PcrV antibody
B2: antibody including the heavy chain of the template humanized antibody and the light chain of the mutant humanized antibody (antibody, V domains shown)
VH: QVQLVQSGAEVKKPGASVKVSCKASGYSFTSYWMHWVRQAPGQGLEWMGEINPSNGRTNYNEKFNTRVTMTRDTSTSTVYMELSSLRSEDTAVYYCARYGNYVVYYTMDYWGQGTTVTVSS
VL: DIQLTQSPTFLSASVGDRVTITCSASTSVSYMEWYQQKPGKAPKILIYTTSKLASGVPSRFSGSGSGTEYTLTISSLQPEDFATYYCHQWRNYPFTFGQGTKLEIK
notes: Human IgG4Pro (S228P) and human Igkappa constant regions; tested as culture supernatant; also called HT/LB
B3: mouse monoclonal antibody 1F3 (antibody, V domains shown)
VH: QVQLQQPGAELVKPGASVKLSCKASGYSFTSYWMHWVKQRPGQGLEWIGEINPSNGRTNYNEKFNTKATLTVDTSSSTAYMQLSSLTSEDSAVYYCVLYGNYVVYYTMDYWGQGTSVTVSS
VL: QIVLTQSPTIMSASLGEEITLTCSASTSVSYMEWYQQKSGTSPKILIYTTSKLASGVPSRFSGSGSGTFYSLTISSVEAEDAADYYCHQWRNYPFTFGSGTKLEIK
notes: also called m1F3; mouse PcrV antibody
B4: mouse-human chimeric 1F3 antibody (antibody, V domains shown)
VH: B3 VH
VL: B3 VL
notes: Human IgG4Pro (S228P) heavy constant region and human Igkappa constant region; tested as culture supernatant; also called mouse-human chimeric antibody; mouse/human chimeric antibody

Key:
[1] = target: T1, recombinant full-length PcrV protein (1-294) of Pseudomonas aeruginosa (Pseudomonas aeruginosa, in the biotin-labeled form: PEO-maleimide biotin on the cysteine inserted between histidine tag and start codon); experiment: surface plasmon resonance analysis, PcrV antigen
T1 construct: also called PcrV antigen; recombinant PcrV; not shown: N-terminal histidine tag encoded by the expression vector (pWE30 [sic] / pQE30)

[2] = target: T1, recombinant full-length PcrV protein …; experiment: SPR, BIAcore T-100, culture supernatant, recombinant PcrV (FIG. 13)
[3] = target: T1, recombinant full-length PcrV protein …; experiment: surface plasmon resonance analysis (BIAcore T-100), culture supernatant, recombinant PcrV
[4] = target: T1, recombinant full-length PcrV protein …; experiment: SPR, BIAcore T100, antibody captured by anti-mouse antibody on CM5 chip, recombinant PcrV as analyte
[5] = target: T2, truncated PcrV (136-233) (Pseudomonas aeruginosa); experiment: Western blotting: purified recombinant truncated PcrV on SDS-PAGE/PVDF, antibody at 1 ug/mL, labeled anti-mouse IgG, ECL [panel Truncated PcrV (136-233]
T2 construct: also called truncated PcrV protein

[6] = target: T1, recombinant full-length PcrV protein …; experiment: surface plasmon resonance analysis, PcrV antigen; remark: listed apart in the source

| Binder | Kd [1] | koff [1] | kon [1] | Kd [2] | koff [3] | kon [3] | Kd [4] | binding result [5] | Kd [6] | koff [6] | kon [6] |
| --- | --- | --- | --- | --- | --- | --- | --- | --- | --- | --- | --- |
| B1 | 0.38 nM | 0.00033 s⁻¹ | 870000 M⁻¹ s⁻¹ |  |  |  |  |  |  |  |  |
| B2 |  |  |  | 650 nM | 0.04 s⁻¹ | 62000 M⁻¹ s⁻¹ |  |  |  |  |  |
| B3 |  |  |  |  |  |  | 0.37 nM | binds |  |  |  |
| B4 | 0.49 nM | 0.00037 s⁻¹ | 740000 M⁻¹ s⁻¹ | 0.26 nM | 0.00051 s⁻¹ | 2e+06 M⁻¹ s⁻¹ |  |  | 0.27 nM | 0.00023 s⁻¹ | 850000 M⁻¹ s⁻¹ |

Source: US20120093808A1 (SHIONOGI, published 2012)
